Test results from US20220242945A1 (SORRISO PHARMACEUTICALS, published 2022).
Where a chain is given by its changes, count along the chain named. Numbers in names are those of the source.

T1: THP-1 derived nhIL-23 (human, UniProt Q9NPF7 20-189; P29460 23-328)
T1 sequence (looked up) 1: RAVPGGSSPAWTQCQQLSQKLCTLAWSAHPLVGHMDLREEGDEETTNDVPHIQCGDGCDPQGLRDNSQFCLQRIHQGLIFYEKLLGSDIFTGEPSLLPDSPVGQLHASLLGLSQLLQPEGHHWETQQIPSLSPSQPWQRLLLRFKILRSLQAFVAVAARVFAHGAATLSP
T1 sequence (looked up) 2: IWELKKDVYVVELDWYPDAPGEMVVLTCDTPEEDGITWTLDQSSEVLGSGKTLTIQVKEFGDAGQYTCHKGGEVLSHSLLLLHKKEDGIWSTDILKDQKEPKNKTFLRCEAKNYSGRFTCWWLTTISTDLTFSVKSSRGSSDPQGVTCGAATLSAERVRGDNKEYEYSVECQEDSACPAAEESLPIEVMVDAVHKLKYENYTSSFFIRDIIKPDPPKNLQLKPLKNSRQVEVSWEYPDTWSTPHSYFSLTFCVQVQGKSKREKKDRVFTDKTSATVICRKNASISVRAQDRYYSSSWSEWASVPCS

T2: recombinant human IL-23 (human, UniProt Q9NPF7 20-189; P29460 23-328)
T2 construct: Heterodimer of p19 and p40; also called hIL-23; interleukin-23; not shown: single C-terminal 6xHis tag
T2 sequence 1: T1 sequence (looked up) 1
T2 sequence 2: T1 sequence (looked up) 2

T3: Human IL-12 (human, UniProt P29459 23-219; P29460 23-328)
T3 sequence (looked up) 1: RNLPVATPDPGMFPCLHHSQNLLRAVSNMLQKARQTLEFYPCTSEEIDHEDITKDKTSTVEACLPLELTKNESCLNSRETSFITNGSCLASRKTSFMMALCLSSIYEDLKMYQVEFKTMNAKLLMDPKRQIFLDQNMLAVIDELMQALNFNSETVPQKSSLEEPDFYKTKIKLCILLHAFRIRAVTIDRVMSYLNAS
T3 sequence (looked up) 2: T1 sequence (looked up) 2

T4: rhesus monkey IL-12 (rhesus monkey, UniProt P48091 23-219; P48095 23-328)
T4 sequence (looked up) 1: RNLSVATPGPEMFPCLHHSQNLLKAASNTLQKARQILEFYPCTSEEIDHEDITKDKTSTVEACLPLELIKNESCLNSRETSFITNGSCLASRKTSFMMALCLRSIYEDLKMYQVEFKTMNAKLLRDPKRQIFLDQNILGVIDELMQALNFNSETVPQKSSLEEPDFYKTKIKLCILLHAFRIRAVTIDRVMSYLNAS
T4 sequence (looked up) 2: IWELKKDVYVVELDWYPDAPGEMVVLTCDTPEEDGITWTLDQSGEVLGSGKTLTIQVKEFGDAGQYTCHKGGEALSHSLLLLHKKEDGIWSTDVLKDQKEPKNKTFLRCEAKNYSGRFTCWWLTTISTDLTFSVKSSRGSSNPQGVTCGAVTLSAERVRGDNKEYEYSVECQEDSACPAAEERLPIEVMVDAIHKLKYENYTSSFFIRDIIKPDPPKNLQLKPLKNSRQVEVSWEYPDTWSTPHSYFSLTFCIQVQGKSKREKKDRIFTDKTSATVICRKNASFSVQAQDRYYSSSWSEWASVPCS

B1: ID-L253T (VHH)
VHH: DVQLVESGGGQVQPGGSLSLSCESSVSIWSFKVMGWFRQVPGKQRELVATITTGGSPDYSDSVKGRFTISRDYDKRTLYLQMNSLKPEDTAVYYCAGRLWAHITSSGHDVWGQGTQVTVSS
notes: Optimised variant of 12G1
B2: ID-L210T (VHH)
VHH: B1 VHH with D1E, S19R, V92R
notes: Relative to ID-L253T: D1E, S19R, V92R
B3: ID-L237T (VHH)
VHH: B1 VHH with D1E, V92R
notes: Relative to ID-L253T: D1E, V92R
B4: ID-L238T (VHH)
VHH: B1 VHH with D1E, S19R, V40A, V92R
notes: Relative to ID-L253T: D1E, S19R, V40A, V92R
B5: ID-L239T (VHH)
VHH: B1 VHH with D1E, S19R, R45L, V92R
notes: Relative to ID-L253T: D1E, S19R, R45L, V92R
B6: ID-L241T (VHH)
VHH: B1 VHH with D1E, S19R, D58H, V92R
notes: Relative to ID-L253T: D1E, S19R, D58H, V92R
B7: ID-L242T (VHH)
VHH: B1 VHH with D1E, S19R, S60R, V92R
notes: Relative to ID-L253T: D1E, S19R, S60R, V92R
B8: ID-L243T (VHH)
VHH: B1 VHH with D1E, S19R, P87S, V92R
notes: Relative to ID-L253T: D1E, S19R, P87S, V92R
B9: ID-L244T (VHH)
VHH: B1 VHH with D1E, S19R
notes: Relative to ID-L253T: D1E, S19R
B10: ID-L247T (VHH)
VHH: B1 VHH with D1E, V40A, R45L
notes: Relative to ID-L253T: D1E, V40A, R45L
B11: ID-L248T (VHH)
VHH: B1 VHH with D1E, K43H, R45L
notes: Relative to ID-L253T: D1E, K43H, R45L
B12: ID-L249T (VHH)
VHH: B1 VHH with D1E, V40A, R45L, D58H
notes: Relative to ID-L253T: D1E, V40A, R45L, D58H
B13: ID-L251T (VHH)
VHH: B1 VHH with D1E, S19R, Q44E, L47F, D58H
notes: Relative to ID-L253T: D1E, S19R, Q44E, L47F, D58H
B14: ID-L252T (VHH)
VHH: B1 VHH with D1E, V40A, Q44E, R45L, I69L, L78V
notes: Relative to ID-L253T: D1E, V40A, Q44E, R45L, I69L, L78V
B15: ID-L245T (VHH)
VHH: B1 VHH with D1E
notes: Relative to ID-L253T: D1E
B16: ID-L246T (VHH)
VHH: B1 VHH with D1E, V40A, I69L, L78V
notes: Relative to ID-L253T: D1E, V40A, I69L, L78V
B17: ID-L250T (VHH)
VHH: B1 VHH with D1E, V40A, R45L, L47F, D58H
notes: Relative to ID-L253T: D1E, V40A, R45L, L47F, D58H
B18: 12G1 (VHH)
VHH: EVQLVESGGGLVQPGGSLRLSCAASVSIWSFKVMGWYRQVPGKQRELVATITTGGSPDYADSVKGRFTMSRDYDKRTVFLEMDSVKPEDAAVYYCNGRLWAHLTSSGHDVWGQGTRVTVSS
notes: Purified primary clone made in E. coli; also called Family L ICVD 12G1; not shown: C-terminal FLAG and 6xHis tags from vector pMEK222
B19: 1E2 (VHH)
VHH: B18 VHH with R116Q
notes: Purified primary clone made in E. coli; also called Family L ICVD 1E2; not shown: C-terminal FLAG and 6xHis tags from vector pMEK222
B20: 10E2 (VHH)
VHH: EVQLVESGGGLAQAGGSLRLSCAPSGRAFSGSAMGWFRQVPGKEREFVGVIIWTGGYTYYADSVKGRFTISRDSAKNTVYLQMDSLKPEDTAVYYCAARTPNSSWFPTTLYEYDYWGQGTQVTVSS
notes: Purified primary clone made in E. coli; not shown: C-terminal FLAG and 6xHis tags from vector pMEK222
B21: 10G10 (VHH)
VHH: EVQLVESGGGLVQAGTSLRLSCAASGRTFSNYIMGWFRQAPGKEREFVAIITANGVATDYRDSVKGRFTISRDNARNTGYLEMNSLKPEDTAVYFCALRTRSGSLFDPGTFDYWGQGTQVTVSS
notes: as for B20
B22: FA1K (bispecific antibody)
chain: DVQLVESGGGLVQPGGSLKLSCAASGFDFSSHWMYWVRQAPGKELEWLSEINTNGLITHYGDSVKGRFTVSRNNAANKMYLELTRLEPEDTALYYCARNQHGLNKGQGTQVTVSSGGGGSGGGGSKGGGGSGGGGSEVQLVESGGGQVQPGGSLSLSCESSVSIWSFKVMGWFRQVPGKQRELVATITTGGSPDYSDSVKGRFTISRDYDKRTLYLQMNSLKPEDTAVYYCAGRLWAHITSSGHDVWGQGTQVTVSS
notes: Before trypsin treatment; also called heterobihead anti-IL-23/anti-TNF-alpha construct; ID-38F-(G4S)2-K-(G4S)2-ID-L253T
B23: ID-38F (VHH)
VHH: DVQLVESGGGLVQPGGSLKLSCAASGFDFSSHWMYWVRQAPGKELEWLSEINTNGLITHYGDSVKGRFTVSRNNAANKMYLELTRLEPEDTALYYCARNQHGLNKGQGTQVTVSS
notes: also called anti-TNF-alpha ICVD ID-38F

molecular target: T1, THP-1 derived nhIL-23; test: cell-based or functional assay

Row | Binder | Mouse splenocyte (EC50; mIL-17 secretion, Evaluation Method C) [nM]
1 | B1 | 13.5
2 | B2 | 5.63
3 | B3 | 6.35
4 | B4 | 5.54
5 | B5 | 3.84
6 | B6 | 3.51
7 | B7 | 3.01
8 | B8 | 5
9 | B9 | 6.62
10 | B10 | 4.52
11 | B11 | 4.47
12 | B12 | 4.27
13 | B13 | 5.74
14 | B14 | 5.2

molecular target: T2, recombinant human IL-23; test: IL-23-IL-23R neutralisation ELISA
Method: (§1) Maxisorp 96-well plates were coated overnight with 50 μl/well 0.3 μg/ml IL-23R-Fc then blocked with 4% milk, 1% BSA.
(§2) The Family L ICVD 12G1 underwent sequence modification to produce multiple variant ICVDs. These variant ICVDs were tested in the potency and protease stability assays detailed above.

Row | Binder | EC50 [nM]
15 | B1 | 0.23
16 | B3 | 0.24
17 | B4 | 0.2
18 | B5 | 0.26
19 | B6 | 0.31
20 | B7 | 0.22
21 | B8 | 0.27
22 | B9 | 0.24
23 | B15 | 0.25
24 | B16 | 2.15
25 | B10 | 0.31
26 | B11 | 0.17
27 | B12 | 0.74
28 | B17 | 6.95
29 | B13 | 1.99
30 | B14 | 0.26

molecular target: T3, Human IL-12; test: binding or inhibition ELISA (which of the two is not said)

Row | Binder | binding result
31 | B1 | no binding

molecular target: T4, rhesus monkey IL-12; test: as above

Row | Binder | binding result
32 | B1 | no binding

molecular target: IL-6 (Homo sapiens (Human), UniProt P05231 30-212); test: as above
Sequence (P05231 30-212 limits assumed): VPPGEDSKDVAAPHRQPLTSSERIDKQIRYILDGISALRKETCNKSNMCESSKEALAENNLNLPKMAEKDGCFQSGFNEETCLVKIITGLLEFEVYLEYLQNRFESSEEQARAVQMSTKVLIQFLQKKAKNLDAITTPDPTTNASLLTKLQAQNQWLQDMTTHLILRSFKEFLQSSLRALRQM

Row | Binder | binding result
33 | B1 | no binding

molecular target: T2, recombinant human IL-23; test: IL-23-IL-23R neutralisation ELISA; average of 5 independent experiments
Method: as §1, §2

Row | Binder | EC50 [nM]
34 | B2 | 0.32

molecular target: T2, recombinant human IL-23; test: IL-23-IL-23R inhibition ELISA (Evaluation Method A), side by side with brazikumab
Method: as §1

Row | Binder | EC50 [nM]
35 | B1 | 0.202

molecular target: T2, recombinant human IL-23; test: IL-23-IL-23R neutralisation ELISA; one experiment, left out of the average by the filing as an outlier

Row | Binder | EC50 [nM]
36 | B2 | 1.1

molecular target: T2, recombinant human IL-23; test: SPR (Biacore), recombinant human IL-23 captured by an anti-p40 mAb on the chip, ICVD flowed over; average KD

Row | Binder | Kd [nM]
37 | B1 | 0.032

molecular target: T2, recombinant human IL-23; test: IL-23-IL-23R neutralisation ELISA (Evaluation Method A): ICVD titrated with recombinant human IL-23, binding to coated IL-23R-Fc
Method: as §1

Row | Binder | EC50 [nM]
38 | B18 | 0.387
39 | B19 | 0.546
40 | B20 | 1.45
41 | B21 | 1.47

molecular target: T2, recombinant human IL-23; test: IL-23-IL-23R neutralisation ELISA (sheet title 'IL-23 IL23R ELISA'); construct blocks binding of IL-23 to IL-23R; A450

Row | Binder | binding result
42 | B22 | binds

molecular target: T5, human TNFα (human, UniProt P01375 77-233); test: competition ELISA on plate-coated human TNFα; competitor 2 nM biotinylated adalimumab, detected with ExtrAvidin-HRP, A450
T5 construct: also called TNF-alpha
T5 sequence (P01375 77-233 limits assumed): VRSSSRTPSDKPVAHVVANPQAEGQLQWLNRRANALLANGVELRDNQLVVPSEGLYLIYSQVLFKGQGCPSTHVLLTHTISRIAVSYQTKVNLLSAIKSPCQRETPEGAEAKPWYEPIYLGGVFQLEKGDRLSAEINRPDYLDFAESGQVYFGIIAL
Method: ELISA plates were coated with 100 ng/mL human TNFα in 250 μg/mL bovine serum albumin (BSA) in phosphate buffered saline (1×PBS) and blocked with 1% BSA in 1× PBS. […] Otherwise 1% BSA was used as an assay diluent.

Row | Binder | binding result
43 | B23 | binds
44 | B22 | binds
